Test results reported in article PMC5391958, “New function of aldoxime dehydratase: Redox catalysis and the formation of an expected product” (PLoS ONE, 2017).

Experiments:
Assay in all cases: purified protein
Type in all cases: biochemical, Pseudomonas chlororaphis
COc1ccccc1O = test system: T1, COc1ccccc1O; details: apparent
T1 construct: recombinant from pET-oxdA (mutants in pET-24a(+)), E. coli BL21-CodonPlus(DE3)-RIL, purified heme enzyme; Mr 40,127; no tag mentioned

[1] = test system: T2, CCn1c(=NN=c2sc3cc(S(=O)(=O)O)ccc3n2CC)sc2cc(S(=O)(=O)O)ccc21; details: apparent
T2 construct: recombinant from pET-oxdA (mutants in pET-24a(+)), E. coli BL21-CodonPlus(DE3)-RIL, purified heme enzyme; Mr 40,127; no tag mentioned

purified protein [2] = substrate: CCn1c(=NN=c2sc3cc(S(=O)(=O)O)ccc3n2CC)sc2cc(S(=O)(=O)O)ccc21; details: apparent, 25 mM H2O2, 100 mM potassium phosphate pH 7.0, 30°C
purified protein [3] = substrate: COc1ccccc1O; details: apparent, 100 mM H2O2, 100 mM potassium phosphate pH 7.0, 30°C
[4] = 25 mM H2O2, 100 mM potassium phosphate pH 7.0, 30°C
[5] = 10 mM H2O2, 100 mM potassium phosphate pH 7.0, 30°C
[6] = 100 mM H2O2, 100 mM potassium phosphate pH 7.0, 30°C

**Q.** “OxdA(WT); aldoxime dehydratase (OxdA) (Pseudomonas chlororaphis subsp. chlororaphis; H320A)” was tested. Which Km (COc1ccccc1O; [4]) did it give?
**A.** Its Km is 840 ± 170 µM.

**Q.** And the Vmax (COc1ccccc1O; [4])?
**A.** Its Vmax is 1.2 µmol/min/mg.

**Q.** What about the kcat (COc1ccccc1O; [4]) of the same molecule?
**A.** The kcat was 0.81 ± 0.05 s⁻¹.

**Q.** And the kcat/Km (COc1ccccc1O; [4])?
**A.** Its kcat/Km is 970 M⁻¹ s⁻¹.

**Q.** And the Km [1, 5]?
**A.** Its Km is 210 ± 30 µM.

**Q.** And the Vmax [1, 5]?
**A.** Its Vmax is 1.3 µmol/min/mg.

**Q.** And the kcat [1, 5]?
**A.** Its kcat is 0.85 ± 0.07 s⁻¹.

**Q.** What about the kcat/Km [1, 5] of the same molecule?
**A.** The kcat/Km was 4000 M⁻¹ s⁻¹.

**Q.** For “OxdA(WT); aldoxime dehydratase (OxdA) (Pseudomonas chlororaphis subsp. chlororaphis; H320D)”, which Km (COc1ccccc1O; [6]) is on record?
**A.** The Km was 1000 ± 400 µM.

**Q.** What about the Vmax (COc1ccccc1O; [6]) of the same molecule?
**A.** The Vmax was 50 µmol/min/mg.

**Q.** What about the kcat (COc1ccccc1O; [6]) of the same molecule?
**A.** The kcat was 33 ± 3 s⁻¹.

**Q.** And the kcat/Km (COc1ccccc1O; [6])?
**A.** Its kcat/Km is 32000 M⁻¹ s⁻¹.

**Q.** And the Km [1, 4]?
**A.** The Km was 120 ± 20 µM.

**Q.** And the Vmax [1, 4]?
**A.** Its Vmax is 33 µmol/min/mg.

**Q.** And the kcat [1, 4]?
**A.** Its kcat is 22 ± 1 s⁻¹.

**Q.** What about the kcat/Km [1, 4] of the same molecule?
**A.** Its kcat/Km is 190000 M⁻¹ s⁻¹.

B1: OxdA(WT); aldoxime dehydratase (OxdA) (Pseudomonas chlororaphis subsp. chlororaphis) (protein)
chain: MESAIDTHLKCPRTLSRRVPEEYQPPFPMWVARADEQLQQVVMGYLGVQYRGEAQREAALQAMRHIVSSFSLPDGPQTHDLTHHTDSSGFDNLMVVGYWKDPAAHCRWLRSAEVNDWWTSQDRLGEGLGYFREISAPRAEQFETLYAFQDNLPGVGAVMDSTSGEIEEHGYWGSMRDRFPISQTDWMKPTNELQVVAGDPAKGGRVVIMGHDNIALIRSGQDWADAEAEERSLYLDEILPTLQDGMDFLRDNGQPLGCYSNRFVRNIDLDGNFLDVSYNIGHWRSLEKLERWAESHPTHLRIFVTFFRVAAGLKKLRLYHEVSVSDAKSQVFEYINCHPHTGMLRDAVVAPT
notes: recombinant from pET-oxdA (mutants in pET-24a(+)), E. coli BL21-CodonPlus(DE3)-RIL, purified heme enzyme; Mr 40,127; no tag mentioned
**Q.** How did the Km (purified protein [2]) turn out when B1 was run?
**A.** Its Km is 210 ± 40 µM.

**Q.** And the Vmax (purified protein [2])?
**A.** Its Vmax is 3.4 µmol/min/mg.

**Q.** What about the kcat (purified protein [2]) of the same molecule?
**A.** Its kcat is 2.3 ± 0.1 s⁻¹.

**Q.** And the kcat/Km (purified protein [2])?
**A.** The kcat/Km was 11000 M⁻¹ s⁻¹.

**Q.** What about the Km (purified protein [3]) of the same molecule?
**A.** The Km was 26 ± 10 µM.

**Q.** And the Vmax (purified protein [3])?
**A.** The Vmax was 20 µmol/min/mg.

**Q.** And the kcat (purified protein [3])?
**A.** The kcat was 14 ± 1 s⁻¹.

**Q.** And the kcat/Km (purified protein [3])?
**A.** The kcat/Km was 530000 M⁻¹ s⁻¹.
